Experimental data as given in patent publication US20140072986, “AMYLOID PROTEIN OLIGOMER-BINDING APTAMER” (NATIONAL UNIVERSITY CORPORATION TOKYO UNIVERSITY OF …, published 2014).

Tests used:
[1] = molecular target: T1, amyloid beta 1-40 oligomer (UniProt P05067 P05067:672-711); assay: aptamer blotting, 500 nM; details: tags: Peptide Institute peptide; oligomerised from HFIP/water; chain copies: oligomer (stated); label: 5'-FITC; G4
Description: (§1) α-synuclein monomer, oligomer, and fibril (1 μg) was immobilized on a nitrocellulose membrane and dried. Then, the membrane was incubated with 4% skim milk prepared using TBS-T (25 mM Tris-HCl, pH 7.4, 0.15 M NaCl, 0.005 M KCl, 0.05% Tween-20) at room temperature for 1 hour for blocking. After that, the membrane was washed with a sufficient amount of TBS-T (2 min×twice and 10 min×one time). The obtained plural oligonucleotides modified with FITC at the 5′ end (f.c. 100 nM) were folded, and the DNA and the membrane were incubated at room temperature for 1 hour. Next, the membrane was washed with a sufficient amount of TBS-T (2 min×twice, 10 min×one time, and 5 min×twice). After that, an HRP-modified anti-FITC antibody diluted to 1000 times with TBS-T and the membrane were incubated at room temperature for 1 hour and the membrane was washed with a sufficient amount of TBS-T (2 min×twice, 10 min×one time, and 5 min×twice). ECL Plus Western blotting detection reagents (GE Healthcare Ltd.) were added to the membrane, and HRP chemiluminescence was detected by TYPHOON 8600 to observe the binding of the DNA to the protein.
Spot intensities of portions with the immobilized α-Syn oligomer were analyzed to create a calibration curve, whereby an oligomer concentration included in the Aβ₁₋₄₀ oligomer sample was roughly estimated. After that, the Aβ₁₋₄₀ oligomer was immobilized on a nitrocellulose membrane in such a manner that the A11 has the same level of spot intensity, and aptamer blotting was performed using 500 nM of each aptamer. As a control, the A11 was used to perform the same experiment.

alpha-synuclein oligomer [2] = molecular target: T2, alpha-synuclein oligomer (UniProt P37840 P37840:1-140); assay: aptamer blotting; binding improved over T-SO504
alpha-synuclein oligomer [3] = molecular target: T2, alpha-synuclein oligomer; assay: aptamer blotting; did not retain binding of T-SO504
[4] = molecular target: PQQ-dependent glucose dehydrogenase (PQQGDH) (UniProt P13650 P13650:25-478); assay: aptamer blotting, 5 pmol protein; details: label: 5'-FITC; G4
Description: as §1
(§2) On the same nitrocellulose membrane, 5 pmol of each of glucose dehydrogenase (PQQGDH) dependent on the coenzyme PQQ, a C-reactive protein (CRP) (Polyscience Corp.), luciferase, and an IgG antibody (Sigma Aldrich Company), and 0.5 μg of α-synuclein oligomer were immobilized. Using the membrane, specificity evaluation was performed by an aptamer blotting method.

C-reactive protein (CRP) = molecular target: T3, C-reactive protein (CRP) (UniProt P02741 P02741:19-224); assay: aptamer blotting, 5 pmol protein; details: tags: Polyscience Corp; chain copies: 5; label: 5'-FITC; G4
T3 sequence: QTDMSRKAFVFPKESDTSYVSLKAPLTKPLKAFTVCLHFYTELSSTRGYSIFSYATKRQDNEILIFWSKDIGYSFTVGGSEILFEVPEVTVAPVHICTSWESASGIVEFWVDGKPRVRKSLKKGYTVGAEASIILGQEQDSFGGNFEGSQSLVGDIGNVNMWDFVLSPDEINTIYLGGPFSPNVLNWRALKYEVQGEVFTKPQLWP
Description: as §1, §2

[5] = molecular target: T1, amyloid beta 1-40 oligomer; assay: ELONA; signal from 1 nM versus 10 nM for T-SO530; also strong spot in blotting FIG. 6; details: tags: Peptide Institute peptide; oligomerised from HFIP/water; chain copies: oligomer (stated); label: 5'-FITC
Description: (§3) 100 μL of 100 μM of an Aβ oligomer solution or PBS buffer was added to each well of MaxiSorp (registered trademark) plate (Nunc Co., Ltd) and incubated at 37° C. for 1.5 hours to immobilize the Aβ oligomer on the wells. Blocking of each well was performed with a 2% (w/v) BSA solution (TBS-T: 25 mM Tris-HCl, pH 7.4, 0.15M NaCl, 0.005M KCl, 0.05% Tween-20) to produce an Aβ oligomer-immobilized plate.
(§4) To each well of the Aβ oligomer-immobilized plate was added the each FITC-labeled aptamer prepared in a concentration of 1 nM, 2.5 nM, or 10 nM, and incubation at room temperature for 60 minutes was carried out. After washing the wells, an HRP-modified anti-FITC antibody (Cosmo BiO Co., Ltd) was added to the wells and incubation was performed at room temperature. After washing the wells, an HRP-luminescent substrate was added to detect the binding of each aptamer to the oligomer by chemiluminescence. FIG. 5 illustrates the results.

[6] = molecular target: T1, amyloid beta 1-40 oligomer; assay: ELONA; oligomer immobilised on plate, room temp; details: tags: Peptide Institute peptide, oligomerised from HFIP/water, chain copies: oligomer (stated), label: 5'-FITC
Description: as §3, §4
Further, using the 10T dimer and the original aptamer T-SO530 in a concentration of 1 nM, 2.5 nM, 10 nM, 20 nM, or 60 nM, an experiment for binding the aptamers to the Aβ oligomer was performed in the same manner as above. Based on the obtained binding signals, curve fitting was performed using GraphPad Prism (MDF Co., Ltd.) to calculate a binding dissociation constant (Kd).

alpha-synuclein oligomer [7] = molecular target: T2, alpha-synuclein oligomer; assay: aptamer blotting

T1 sequence (P05067 672-711, one chain of several): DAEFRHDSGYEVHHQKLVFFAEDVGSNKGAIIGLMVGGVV
Chain of PQQ-dependent glucose dehydrogenase (PQQGDH) (P13650 25-478, one chain of several): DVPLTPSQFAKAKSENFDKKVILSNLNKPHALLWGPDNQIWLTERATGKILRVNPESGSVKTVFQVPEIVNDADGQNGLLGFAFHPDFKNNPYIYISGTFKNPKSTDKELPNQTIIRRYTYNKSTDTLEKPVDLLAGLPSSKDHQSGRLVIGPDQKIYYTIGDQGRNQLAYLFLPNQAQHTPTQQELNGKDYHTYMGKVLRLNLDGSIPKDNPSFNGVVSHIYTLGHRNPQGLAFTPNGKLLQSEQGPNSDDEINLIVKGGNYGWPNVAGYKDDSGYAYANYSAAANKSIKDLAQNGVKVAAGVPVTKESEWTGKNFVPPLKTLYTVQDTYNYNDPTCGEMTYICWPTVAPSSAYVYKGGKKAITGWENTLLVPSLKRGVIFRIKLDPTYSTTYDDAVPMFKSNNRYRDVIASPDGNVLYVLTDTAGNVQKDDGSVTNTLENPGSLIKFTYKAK

Binder: GCGGTAGGGTGTGAGCGGAAGGGG (structured_DNA) [T-SO602]
- binding result [1]: binds

B1: 504W (structured_DNA)
DNA: AAAAACAGGGGTGGGCAAAGGGCGGTGGTGTTTTTCAGGGGTGGGCAAAGGGCGGTGGTG
- binding result (alpha-synuclein oligomer [2]): binds

Binder: AAAAAGGGCAAAGGGAA (ssDNA) [504M2]
- binding result (alpha-synuclein oligomer [3]): no binding

Binder: GGTGGCTGGAGGGGGCGCGAACG (structured_DNA) [T-SO517]
- binding result [4]: no binding
- binding result (C-reactive protein (CRP)): no binding
- binding result [1]: binds

Binder: AAAAAGGGTGGGCAAAGGGAA (ssDNA) [504M1]
- binding result (alpha-synuclein oligomer [3]): no binding

Binder: GGTGCGGCGGGACTAGTGGGTGTG (structured_DNA) [T-SO530]
- binding result [1]: binds

B2: 5T dimer (structured_DNA)
DNA: TTTTTGGTGCGGCGGGACTAGTGGGTGTGTTTTTGGTGCGGCGGGACTAGTGGGTGTG
- binding result [5]: binds

Binder: GCCTGTGGTGTTGGGGCGGGTGCG (structured_DNA) [T-SO508]
- binding result [1]: binds

Binder: GCGTGTGGGGCTTGGGCAGCTGGG (structured_DNA) [T-SO552]
- binding result [1]: binds

Binder: CAGGGGTGGGCAAAGGGCGGTGGTG (structured_DNA) [T-SO504]
- binding result [1]: binds

Binder: TTTTTGGTGCGGCGGGACTAGTGGGTGTG (structured_DNA) [tT-SO530]
- Kd ([6]; G4): 9.03 nM

Binder: GGGTCGGCTGTCCGTGGGTGGGGA (structured_DNA) [T-SO606]
- binding result [4]: no binding
- binding result (C-reactive protein (CRP)): no binding
- binding result [1]: binds

Binder: CGAGGGGCGTCTGGGAGTGGTCGG (structured_DNA) [T-SO554]
- binding result [1]: binds

Binder: TTTTTCAGGGGTGGGCAAAGGGCGGTGGTG (structured_DNA) [tT-SO504]
- binding result (alpha-synuclein oligomer [7]): binds

B3: 10T dimer (structured_DNA)
DNA: TTTTTGGTGCGGCGGGACTAGTGGGTGTGTTTTTTTTTTGGTGCGGCGGGACTAGTGGGTGTG
- Kd [6]: 1.44 nM
